Assay results as given in patent publication US20190185531A1.

Tests used:
Experiment in all cases: competition fluorescence anisotropy against fluoresceinated Bim BH3
[1] = molecular target: Bcl-2 (c-myc-tagged) (human) (UniProt P10415)
[2] = molecular target: T1, Bcl-w (c-myc-tagged) (human) (UniProt Q92843)
T1 sequence (looked up): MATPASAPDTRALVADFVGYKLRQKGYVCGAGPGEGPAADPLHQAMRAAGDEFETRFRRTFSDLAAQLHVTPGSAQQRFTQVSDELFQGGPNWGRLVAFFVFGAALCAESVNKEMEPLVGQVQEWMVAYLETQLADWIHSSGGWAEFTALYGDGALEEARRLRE

[3] = molecular target: Bcl-xL (c-myc-tagged) (human) (UniProt Q07817)
[4] = molecular target: human Mcl-1 (c-myc-tagged) (human) (UniProt Q07820)
human Mcl-1 (c-myc-tagged) (human), sequence (Q07820 172-327 limits assumed): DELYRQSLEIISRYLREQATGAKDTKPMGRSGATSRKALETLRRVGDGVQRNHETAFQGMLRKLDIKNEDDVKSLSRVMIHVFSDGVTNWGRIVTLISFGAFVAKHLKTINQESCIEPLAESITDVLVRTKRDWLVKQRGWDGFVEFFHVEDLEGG

Bcl-xL (c-myc-tagged) (human), sequence (Q07817 1-209): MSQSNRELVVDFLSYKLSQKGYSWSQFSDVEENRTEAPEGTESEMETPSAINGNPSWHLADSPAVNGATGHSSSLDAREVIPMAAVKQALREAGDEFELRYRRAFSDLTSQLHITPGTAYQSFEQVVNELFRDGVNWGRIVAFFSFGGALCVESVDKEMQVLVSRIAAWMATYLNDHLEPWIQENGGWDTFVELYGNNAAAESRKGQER
Bcl-2 (c-myc-tagged) (human), sequence (P10415 1-217 limits assumed): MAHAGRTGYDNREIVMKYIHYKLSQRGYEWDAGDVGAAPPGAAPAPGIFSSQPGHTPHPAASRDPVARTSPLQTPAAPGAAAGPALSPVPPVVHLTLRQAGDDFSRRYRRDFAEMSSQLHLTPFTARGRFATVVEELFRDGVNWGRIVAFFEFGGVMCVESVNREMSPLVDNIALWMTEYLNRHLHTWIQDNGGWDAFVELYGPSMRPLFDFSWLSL

- fold specificity for Bfl-1 relative to this protein [1]: > 150 fold
- fold specificity for Bfl-1 relative to this protein [2]: > 150 fold
- fold specificity for Bfl-1 relative to this protein [3]: > 150 fold
- fold specificity for Bfl-1 relative to this protein [4]: > 150 fold
B1: FS1 (peptide)
peptide: Ac-QWVREIAAGLRLAADNVNAQLER-NH2
